Columns and labels:
Type in all cases: biochemical
[1] = GGR-mediated hydrolysis of prenyl pyrophosphates to monophosphates, time course by LC-MS-TOF; details: standard assay as a function of time, 0-60 minutes
Protocol: Validation of enzymatic substrate reduction was determined by incubating all assays in triplicate for each respective substrate and putative GGR for 1 hour at 37° C. All assays were performed at pH 7.4 in 100 mM sodium phosphate buffer containing 30-150 μM enzyme, 200 µM FAD (Sigma-Aldrich), and 65 mM sodium dithionite (Sigma-Aldrich). Standard assays for alcohol reduction were incubated with 100 μM enzyme and 500 μM (E,E)-farnesol (Alfa-Aesar) or (E,E,E)-geranylgeraniol (Sigma-Aldrich); pyrophosphate assays were performed at 100 μM FPP or GGPP (Sigma-Aldrich). […]
(§1) Data acquisition and processing were performed by the Agilent Technologies MassHunter software package. Product formation was determined using extracted ion chromatogram abundances (±0.02 Da) for each molecule's [M-H]^− mass (Table 4). […] Relative reductase reactivity among GGRs was determined by measuring the fractional abundance of singly-, doubly-, or triply-reduced products to the total ion abundance present for intact and hydrolyzed moieties. Integrated areas for hydrolyzed monophosphate products were assumed to have the same ionization intensities as their pyrophosphate counterparts, as determined by their standard curves measured from 0-120 μM (FIG. 15).

[2] = GGR reduction of geraniol; details: FIG. 1A legend, conditions not stated
[3] = GGR reduction of geranyl pyrophosphate; set-up: key to GPP (C10) reduction: +: activity detected; ++: activity higher than for other GGRs
[4] = In vitro GGR reduction of geranylgeranyl pyrophosphate, products detected by LC-MS-TOF; set-up: key to GGPP (C20) reduction: +: activity detected; ++: activity higher than for other GGRs
Protocol: (§2) Validation of enzymatic substrate reduction was determined by incubating all assays in triplicate for each respective substrate and putative GGR for 1 hour at 37° C. All assays were performed at pH 7.4 in 100 mM sodium phosphate buffer containing 30-150 μM enzyme, 200 µM FAD (Sigma-Aldrich), and 65 mM sodium dithionite (Sigma-Aldrich). Standard assays for alcohol reduction were incubated with 100 μM enzyme and 500 μM (E,E)-farnesol (Alfa-Aesar) or (E,E,E)-geranylgeraniol (Sigma-Aldrich); pyrophosphate assays were performed at 100 μM FPP or GGPP (Sigma-Aldrich). Alcohol-based assays were quenched by liquid extraction using a 3:1 (v:v) LC-grade ethyl acetate solution containing 100 μM dodecanol as a GC internal standard (Sigma-Aldrich). The organic layer was extracted and stored at −20° C. until analysis by GC-MS. Pyrophosphate assays were similarly quenched using LC-grade n-butanol (Sigma-Aldrich) 1:1 (v:v) and centrifuged at 15000×g for 2 minutes. The n-butanol layer was dried for 45 minutes at ambient temperature using a Labconco speedvac, reconstituted in 25 µL of a 62:38 (v:v) acetonitrile/50 mM ammonium carbonate solution, and stored at −20° C. until further analysis by LC-MS-TOF [33]. Characterization of enzymatic hydrolysis of isoprenoid pyrophosphate substrates by SaGGR and PfGGR was performed by quenching the enzyme reactions at 0, 2, 5, 10, 20, 40, and 60 minutes of incubation.
The separation of FPP, GGPP, and their reduced forms was conducted on a ZIC-pHILIC column (150 mm length, 2.1 mm internal diameter, and 5 μm particle size, Merck) using an Agilent Technologies 1200 Series Rapid Resolution high performance liquid chromatography (HPLC) system. Solvents for HPLC were purchased from HoneyWell and were of HPLC grade or higher. The mobile phases used for this analysis were A) 50 mM ammonium carbonate (Fluka, 30-33% NH3 basis) in water and B) acetonitrile. Analytes were eluted isocratically with a mobile phase composition of 62% B at a flow rate of 0.2 mL/min. The total run time of the method was 6.5 min. The temperature of the sample tray was maintained at 6° C. using an Agilent FC/ALS Thermostat. […]
as §1

[5] = In vitro GGR reduction of farnesyl pyrophosphate, products detected by LC-MS-TOF; set-up: key to FPP (C15) reduction: +: activity detected; ++: activity higher than for other GGRs
Protocol: as §2, with “[…] […]” for “Validation of enzymatic substrate reduction was determined by incubating all assays in triplicate for each respective substrate and putative GGR for 1 hour at 37° C. All assays were performed at pH 7.4 in 100 mM sodium phosphate buffer containing 30-150 μM enzyme, 200 µM FAD (Sigma-Aldrich), and 65 mM sodium dithionite (Sigma-Aldrich).”
The separation of FPP, GGPP, and their reduced forms was conducted on a ZIC-pHILIC column (150 mm length, 2.1 mm internal diameter, and 5 μm particle size, Merck) using an Agilent Technologies 1200 Series Rapid Resolution high performance liquid chromatography (HPLC) system. Solvents for HPLC were purchased from HoneyWell and were of HPLC grade or higher. The mobile phases used for this analysis were A) 50 mM ammonium carbonate (Fluka, 30-33% NH3 basis) in water and B) acetonitrile. Analytes were eluted isocratically with a mobile phase composition of 62% B at a flow rate of 0.2 mL/min. The total run time of the method was 6.5 min. The temperature of the sample tray was maintained at 6° C. using an Agilent FC/ALS Thermostat. The column compartment was set to 40° C. A sample injection volume of 2 μL was used throughout.
The HPLC system was coupled to an Agilent Technologies 6210 time-of-flight mass spectrometer (LC-TOF-MS) by a ⅓post-column split. Contact between both instrument set-ups was established using a LAN card in order to trigger the MS into operation upon the initiation of a run cycle from the MassHunter workstation (Agilent Technologies). Electrospray ionization (ESI) was conducted in the negative ion mode and a capillary voltage of −3500 V was utilized. MS experiments were carried out in full scan mode, at 0.86 spectra/second for the detection of [M-H]^− ions. The instrument was tuned for a range of 50-1700 m/z. Prior to LC-TOF-MS analysis, the TOF-MS was calibrated via an ESI-L low concentration tuning mix (Agilent Technologies).
as §1

[6] = In vitro GGR reduction of geranylgeraniol, products analysed by GC-MS; set-up: key to Geranylgeraniol (C20) reduction: +: activity detected; ++: activity higher than for other GGRs
Protocol: as §2
(§3) Product identification and quantification of farnesol and hydrofarnesol derivatives were modified from previous detection methods. All GC-MS analyses were determined using an Agilent 6890 gas chromatography instrument coupled to an Agilent 5973 mass selective detector. 1 µL of extracted samples were injected in splitless mode onto an Agilent CycloSil-B column, with helium used as a carrier gas flowing at 1.0 mL/min. Following injection, the oven was held at 50° C. for 30 seconds, then increased to 175° C. at 35° C./min. Farnesol and hydrofarnesols were resolved by increasing the temperature 4° C./min up to 200° C., then increased to 300° C. at a rate of 35° C./min where it was held for 1.5 minutes. Geranylgeraniol and its hydrogenated derivatives were analyzed using the same injection method. After injection, the oven was held at 50° C. for 30 seconds then increased to 235° C. at 35° C./min. Hydrogeranylgeraniols were separated by increasing the oven temperature 4° C./min to 250° C., then ramped to 300° C. at a rate of 35° C./min where it was held for 1.5 minutes.
(§4) The EI-MS detection was initiated after a solvent delay of 5.0 minutes. Detection and classification of hydrofarnesols was performed in scan mode at 9.8 scans/sec ranging from 50-250 m/z in positive ion mode. For geranylgeraniol, the same scan parameters were implemented except for the mass range, which was expanded to 50-300 m/z in positive ion mode. The electron multiplier voltage was set to a gain factor of 1, with the MS ion source and quadrupole set to 230° C. and 150° C., respectively.
(§5) Total ion chromatograms (TIC) were integrated using Agilent Technologies Masshunter software, version 6. Product formation was determined from the TIC area for C15 or C20 alcohol products eluting at each respective retention time. Absolute product concentrations were determined from standard curves (0-200 μM) of either farnesol or geranylgeraniol assuming the TIC area of each reduced product ionizes with an equivalent efficiency to that of the unreduced substrate (FIG. 10). Subsequently, enzyme turnover numbers for isoprenoid reduction were calculated as the total number of nanomoles of prenyl units reduced per milligram of enzyme in 1 hr.

[7] = In vitro GGR reduction of farnesol, products analysed by GC-MS; set-up: key to Farnesol (C15) reduction / Farnesol (C15)-full reduction: +: activity detected; ++: activity higher than for other GGRs
Protocol: as §2, with “triplicate for each respective substrate and putative GGR for 1 hour at 37° C. All assays were performed at pH 7.4 in 100 mM sodium phosphate” left out
as §3, §4, §5

[8] = FIG. 1A legend, conditions not stated
[9] = 1 hr, 37° C., pH 7.4, error in brackets

B1: Sa-GGR: geranylgeranyl reductase from Sulfolobus acidocaldarius, InterPro M1I414, wild type (protein, listed as Sulfolobus acidocaldarius)
chain: MKELKYDVLIIGGGFAGSSAAYQLSRRGLKILLVDSKPWNRIGDKPCGDAVSKAHFDKLGMPYPKGEELENKINGIKLYSPDMQTVWTVNGEGFELNAPLYNQRVLKEAQDRGVEIWDLTTAMKPIFEDGYVKGAVLFNRRTNEELTVYSKVVVEATGYSRSFRSKLPPELPITEDLDDKDADVAYREVLLTKEDIEDHDYLRIFIDQETSPGGYWWYFPKGKNKVNVGLGIQGGMGYPSIHEYYKKYLDKYAPDVDKSKLLVKGGALVPTRRPLYTMAWNGIIVIGDSGFTVNPVHGGGKGSAMISGYCAAKAILSAFETGDFSASGLWDMNICYVNEYGAKQASLDIFRRFLQKLSNDDINYGMKKKIIKEEDLLEASEKGDLHLSVADKAMRVISGLGRPSLLFKLKAVAESMKKIKELYLNYPRSPSSLGSWRREVDNVLTEFNKSLS
- Rate of first-order substrate hydrolysis, comparison [1]: occurs more quickly in SaGGR than for PfGGR
- Product of complete reduction of geraniol [2]: H4-GOH
- GPP (C10) reduction [3]: +
- Product of GPP reduction [3, 8]: H2-GPP
- GGPP (C20) reduction [4]: +
- Product of GGPP reduction [4, 8]: H6-GGPP
- FPP (C15) reduction [5]: +
- Product of FPP reduction [5, 8]: H4-FPP
- Preferential / final product of FPP reduction ([5]; SaGGR variants, pH 5.5, 50° C., kinetic time course): H4-FPP
- FPP consumption ([5]; after two hours of incubation at pH 5.5, 50° C.): fully consume FPP
- Reduction of FPP (in words) ([5]; standard assay conditions): could reduce FPP
- Geranylgeraniol (C20) reduction [6]: +
- Reduced products formed from geranylgeraniol ([6]; 1 hour 37° C., pH 7.4): H2-, H4-, H6- and H8-geranylgeraniol
- Specific activity of enzymatic GGR reduction on geranylgeraniol (GGOH) [6, 9]: 50 (10) nmol terpene units reduced mg^−1 enzyme hr^−1
- Product of complete reduction of geranylgeraniol [6, 8]: H8-GGOH
- Enzymatic reduction of geranylgeraniol (in words) ([6]; standard assay, 1 hr, 37° C., pH 7.4): enzymatically reduce geranylgeraniol
- Specific activity toward GGOH ([6]; standard assay, stated as lower bound): at least 50±10 nmol terpenoids reduced per milligram of enzyme per hour
- Farnesol (C15) reduction [7]: +
- Farnesol (C15)-full reduction [7]: +
- Formation of fully reduced farnesol ([7]; 50° C. and pH 5.5): generated a modest amount of H6-FOH
- Reduced products formed from farnesol ([7]; 1 hour 37° C., pH 7.4): H2- and H4-farnesol
- Reduction of FOH to H2-FOH or H4-FOH (in words) ([7]; 1 hr incubation under standard assay conditions): found to reduce FOH
- Specific activity of enzymatic GGR reduction on farnesol (FOH) [7, 9]: 8 (1) nmol terpene units reduced mg^−1 enzyme hr^−1
- Product of complete reduction of farnesol [7, 8]: H6-FOH

B2: Ma1-GGR: geranylgeranyl reductase from Methanosarcina acetivorans #1, InterPro Q8TQQ6 (protein, UniProt Q8TQQ6 1-407, looked up)
Digeranylgeranylglycerophospho …: MKDIYDVLVIGAGPAGSIAAKTAAEKGLDVLLIEKRQEIGDPVRCAEGVNKEYLKKHVEIDNSWICADLKGSRIYSPNGTKVEMAEEISGGEVGYVLERKIFDRALAEHAAKAGAEVRVKTRATGLIIEDDFVKGARLMNLGKEYEVRAKIVIGADGVESKVGRWAGIDTSLKPIDIETCAQYLIAGADIDPEYCEFYIGNEIAPGGYVWIFPKGEGKANVGVGILGNRTGKFKPRPVDYLNNFVEKKFPNAKIVEMVFGGVPVSGSIEKTSVNGLMLVGDAARQSDPITGGGILNAMDAGKIAGEAAYEAISSGDVSLEKLEEVYEKRWRETTGHDIDMSLIVKNCFINLKDEDLDSLADSLKEVKFESMRLFDLLQALFKANKKLLWDLRVLFKDAAKEVMKNRT
- GGPP (C20) reduction [4]: +
- Reduction of GGPP (in words) ([4]; standard assay conditions): found to reduce GGPP
